Results on 4 substances are retold here after US20220257796A1.

The test has as its target CD46 (human) (UniProt P15529). In words: Kd of fiber knob to CD46, Table 1 (method not given).
Chain of UniProt P15529 (P15529 35-343 limits assumed): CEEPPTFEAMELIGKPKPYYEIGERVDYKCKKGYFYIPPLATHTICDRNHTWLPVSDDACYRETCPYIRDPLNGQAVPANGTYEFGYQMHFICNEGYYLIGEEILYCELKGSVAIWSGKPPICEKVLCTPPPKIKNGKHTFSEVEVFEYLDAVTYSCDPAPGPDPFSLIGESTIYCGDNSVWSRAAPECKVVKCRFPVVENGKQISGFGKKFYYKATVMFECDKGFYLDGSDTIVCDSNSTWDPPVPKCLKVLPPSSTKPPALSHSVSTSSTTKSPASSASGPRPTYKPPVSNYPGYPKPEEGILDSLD
Regarding Ad11 (fiber knob) (from UniProt P33681), the Kd was found to be 11.2 nM.

“Ad35 fiber knob mutant A8: Ile192Val Ile256Val (from UniProt Q92854)” gave a Kd of 13.7 nM. This Kd and that of the substance before are within 1.5-fold of each other.

Substance “Ad35 fiber knob mutant B4: Thr245Ala (from UniProt Q8NHJ6)” registered a Kd of 7.64 nM.

“Ad35 fiber knob mutant B5: Ile256Leu (from UniProt P46977)” registered a Kd of 11 nM.
